Reference: the supplement of paper PMC9170038

System: MS2 coat protein
Assay: apparent KD of MS2 coat protein; designed switch direction (-1 OFF switch, 1 ON switch): 1; higher = weaker reporter binding
Method in brief: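 Designed RNA switches with common flanks were transcribed on Illumina chips by stalled E. coli RNA polymerase and titrated with SNAP-549-labelled MS2 coat protein, from 0.7 or 1.5 nM doubling to 3 µM, in Tris-HCl pH 7.5 buffer with KCl, MgCl2, BSA, DTT, tRNA and Tween-20. Steps lasted 0.8–1.5 h (lowest) to 10–20 min (highest). Titrations ran without input, with 200 uM small-molecule ligand, or with an oligonucleotide input. Normalised cluster fluorescence was curve-fitted, and apparent KD is the per-design median over clusters.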

[1] = input ligand: microRNA oligo, concentration not stated
[2] = Eterna round: R95, input ligand: FMN 200 uM
[3] = Eterna round: R95, input ligand: microRNA oligo, concentration not stated
[4] = Eterna round: R95, input ligand: none

| Sequence | apparent KD of MS2 coat protein (input ligand: FMN 200 uM) | apparent KD of MS2 coat protein [1] | apparent KD of MS2 coat protein (input ligand: none) | apparent KD of MS2 coat protein [2] | apparent KD of MS2 coat protein [3] | apparent KD of MS2 coat protein [4] |
| --- | --- | --- | --- | --- | --- | --- |
| CGUGAACAUGAGGAUCACCCAUGUGAAAAACAUAGAGGAUAUGUCACGUGAGUGUAAAAGACAGAAGGCUAUCGUG [Mod 3 of Round 1 starryjess' Mod pf Nando] (Eterna round: R96, puzzle: Same State 1) | 38.1 nM | 78.3 nM | 77.6 nM |  |  |  |
| CGUGGGUGGCUGGAGGAUAUUCGAGUGGUAACAUGAGGAUCACCCAUGUGUCGCGCGGUACAUGAGGAGAAGGCUGGCGGCCGGC (puzzle: Same State 2) |  |  |  | 225 nM | 40.1 nM | 76.2 nM |
| CUACGAGCGCCACAGGAUAUACUGAGACUCACAUGAGGAUCACCCAUGUCCAAUUCUCCCAAAUAGUAGAAGGGUGACGCGCUCG [Maenve] (Eterna round: R96, puzzle: Same State 2) | 35.5 nM | 426 nM | 562 nM |  |  |  |
| CUACGAGCGCCACAGGAUAUACUGAGACUCACAUGAGGAUCACCCAUGUCCAAUUCUCCCAAAUAGUAGAAGGGUGACGCGCUCG [Maenve] (puzzle: Same State 2) |  |  |  | 37.1 nM | 480 nM | 950 nM |
| CUGAGAUGUCAAGGAUAUCACGUCGAUUAGACGUGAGAAGGUGAUCUGCACAUGAGGAUCACCCAUGUGUUACAUGGAACUCAG [Brourd's SSNG1/1-A2 mod 11] (Eterna round: R96, puzzle: Same State NG 1) | 197 nM | 386 nM | 431 nM |  |  |  |
| CUGAGCAAUCGAGGAUAUCACGUCGAAUAGACGUGAGAAGGCGAUCAUAACAUGAGGAUCACCCAUGUAUUACAUGAAGCUCAG [SSNG1/4-A1] (Eterna round: R96, puzzle: Same State NG 1) | 11.7 nM | 12.8 nM | 16.2 nM |  |  |  |
| CUGAGCAAUCUAGGAUAUCACGUCGUUUAGACGUGAGAAGGAGAUCAUAACAUGAGGAUCACCCAUGUAUUACAUGAAGCUCAG [SSNG1/7-A3] (Eterna round: R96, puzzle: Same State NG 1) | 13.1 nM | 15.7 nM | 18.8 nM |  |  |  |
| CUGAGCAGUCAAGGAUAUCACGUCGAAUAGACGUGAGAAGGUGAUUAAUACAUGAGGAUCACCCAUGUAAUACAUGAAGCUCAG [SSNG1/11-A1] (Eterna round: R96, puzzle: Same State NG 1) | 25.6 nM | 33.5 nM | 46.6 nM |  |  |  |
| CUGAGCAGUCAAGGAUAUCACGUCGUUUAGACGUGAGAAGGUGAUUAAUACAUGAGGAUCACCCAUGUAAUACAUGAAGCUCAG [SSNG1/11-A3] (Eterna round: R96, puzzle: Same State NG 1) | 20.9 nM | 30.9 nM | 42.5 nM |  |  |  |
| CUGCUCGUGUGAGGAUAUGCCGCCGUUUCGGCUGCAGAAGGUGCUACGUAACAUGAGGAUCACCCAUGUCUCUGUUGUUUCGUU [salish99_SSNG1_r04_949] (Eterna round: R96, puzzle: Same State NG 1) | 37.4 nM | 35.2 nM | 34 nM |  |  |  |
| CUGCUCGUGUGAGGAUAUGCCGCCGUUUCGGCUGCAGAAGGUGCUACGUUACAUGAGGAUCACCCAUGUCUCUGUUGUUUCGUG [salish99_SSNG1_r04_944] (Eterna round: R96, puzzle: Same State NG 1) | 20.7 nM | 15.8 nM | 22.8 nM |  |  |  |
| CUGUGUUGCGGGCAGGAUAUGUAUUGGAGUACAUGAGGAUCACCCAUGUGCGGGUGUUUCACCCGACAGAAGGGCCAAUCGCGAC [JL-ss2-3.22 ViennaUCT mod] (puzzle: Same State 2) |  |  |  |  | 76.7 nM |  |
| GAAAGCAACGGAGGAUAUUCGCGUACGUUGGACGAAGAAGGCCGACAUGAGGAUCACCCAUGUACGAAUCACGCCAUAGCAUUA [Eternabot solution 12] (Eterna round: R96, puzzle: Same State NG 1) | 23.9 nM | 16.4 nM | 19.7 nM |  |  |  |
| GAAAGCAUGGGAGGAUAUAGCCUCUAUGAAAGGCUAGAAGGCCCUGGCCACAUGAGGAUCACCCAUGUGAAAUAAAUAGAAGAA [Raarceza] (Eterna round: R96, puzzle: Same State NG 1) | 28.9 nM | 96.9 nM | 218 nM |  |  |  |
| GAAAUAUAACAUGAGGAUCACCCAUGUACAUUGGUACGGCGGAAGGAUAUGAAAGACAUGGUCAAUUAGAAGGUCCUAUCAAAA [Eternabot solution 50] (Eterna round: R96, puzzle: Same State NG 3) | 102 nM | 114 nM | 139 nM |  |  |  |
